The results in this text go back to patent US20030236184A1.

By Ki is commonly meant a measure of affinity in units of concentration, obtained from inhibition or displacement. High values mean lower affinity, low ones higher affinity.

The target in test [1] is type-I GnRH binding site in the pituitary of adult male land-locked P. marinus (P. marinus (sea lamprey)). Put plainly: competition with iodinated [DAla6,Pro9Net]-mammalian GnRH tracer, pituitary of adult male P. marinus; Ki from IC50.
The target of test [2] is type-II GnRH binding site in the pituitary of adult male land-locked P. marinus (P. marinus (sea lamprey)). The test is described as above.
The target of test [3] is type-I GnRH binding site in the pituitary of adult male land-locked P. marinus (P. marinus (sea lamprey)). Put plainly: self-displacement of iodinated [DAla6,Pro9Net]-mammalian GnRH tracer, pituitary of adult male P. marinus; Ki from IC50.
Test [4] addresses type-II GnRH binding site in the pituitary of adult male land-locked P. marinus (P. marinus (sea lamprey)). The test is described as above.

Regarding “[Ac-Delta-3Pro, 4FDPhe^2-D-Trp^3,6]-lGnRH-III (peptide)”, the inhibitory constant (Ki) in test [1] is 7.1 nM; in test [2], 8940 nM.

Take [D-Phe^2, Gly^6]-lGnRH-I (peptide): the values for the Ki in test [1] and in test [2] were 1.37 nM and 5650 nM, respectively.

Consider [D-Phe^2, Gly^6]-lGnRH-III (peptide), for which the Ki in test [1] came out at 0.00383 nM; in test [2] it was 655 nM.

“[DAla^6, Pro^9Net]-mammalian GnRH (peptide)”: the Ki is 0.00311 nM in test [3] and 89 nM in test [4].

In the case of [D-Phe^2,6, Pro^3]-lGnRH-III (peptide), the figures for the Ki in test [1] and in test [2] were 0.03 nM and 52200 nM, respectively.
